Results: paper PMC9482650, “Quantitative fragmentomics allow affinity mapping of interactomes” (Nature Communications, 2022)

T1: GIPC1, O14908
T1 sequence (O14908 128-223, limits assumed, looked up): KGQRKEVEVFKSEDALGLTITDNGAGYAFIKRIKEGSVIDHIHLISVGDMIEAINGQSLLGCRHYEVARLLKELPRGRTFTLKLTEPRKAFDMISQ

T2: PDZD2_3, O15018
T2 sequence (O15018 581-682, limits assumed, looked up): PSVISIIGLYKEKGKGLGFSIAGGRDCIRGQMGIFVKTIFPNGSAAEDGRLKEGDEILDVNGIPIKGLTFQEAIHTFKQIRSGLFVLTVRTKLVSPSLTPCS

T3: MPDZ_2, O75970
T3 sequence (O75970 252-347, limits assumed, looked up): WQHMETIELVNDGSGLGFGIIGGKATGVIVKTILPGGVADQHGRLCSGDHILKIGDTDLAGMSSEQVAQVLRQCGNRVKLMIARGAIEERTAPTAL

T4: PARD6G, Q9BYG4
T4 sequence (Q9BYG4 153-261, limits assumed, looked up): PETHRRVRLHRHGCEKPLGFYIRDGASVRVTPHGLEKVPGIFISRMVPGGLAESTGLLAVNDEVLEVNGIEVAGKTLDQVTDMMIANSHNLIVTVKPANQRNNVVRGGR

T5: DVL3, Q92997
T5 sequence (Q92997 244-331, limits assumed, looked up): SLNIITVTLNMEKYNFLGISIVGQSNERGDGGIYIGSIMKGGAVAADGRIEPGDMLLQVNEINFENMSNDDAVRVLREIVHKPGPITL

T6: MPP1, Q00013
T6 sequence (Q00013 66-162, limits assumed, looked up): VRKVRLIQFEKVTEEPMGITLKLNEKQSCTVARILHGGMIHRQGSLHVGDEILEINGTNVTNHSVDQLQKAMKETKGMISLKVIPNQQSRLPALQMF

T7: PDZD7_1, Q9H5P4
T7 sequence (Q9H5P4 81-178, limits assumed, looked up): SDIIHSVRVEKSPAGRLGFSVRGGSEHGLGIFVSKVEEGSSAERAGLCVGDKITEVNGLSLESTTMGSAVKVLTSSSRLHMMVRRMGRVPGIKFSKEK

T8: TJP3_2, O95049
T8 sequence (O95049 190-282, limits assumed, looked up): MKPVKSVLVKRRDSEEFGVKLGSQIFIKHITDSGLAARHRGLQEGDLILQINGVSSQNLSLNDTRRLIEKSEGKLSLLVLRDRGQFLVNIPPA

T9: PREX2_2, Q70Z35
T9 sequence (Q70Z35 672-764, limits assumed, looked up): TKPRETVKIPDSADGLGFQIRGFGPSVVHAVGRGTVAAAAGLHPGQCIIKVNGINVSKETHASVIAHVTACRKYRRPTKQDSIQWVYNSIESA

T10: SHROOM2, Q13796
T10 sequence (Q13796 21-118, limits assumed, looked up): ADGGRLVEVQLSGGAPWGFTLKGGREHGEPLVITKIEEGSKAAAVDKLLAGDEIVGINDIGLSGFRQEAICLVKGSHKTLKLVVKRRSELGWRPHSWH

T11: PDZD8, Q8NEN9
T11 sequence (Q8NEN9 361-459, limits assumed, looked up): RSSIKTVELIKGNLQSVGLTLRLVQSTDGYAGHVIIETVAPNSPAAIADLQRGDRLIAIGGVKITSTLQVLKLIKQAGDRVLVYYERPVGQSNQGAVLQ

T12: MAGI2_1, Q86UL8
T12 sequence (Q86UL8 12-111, limits assumed, looked up): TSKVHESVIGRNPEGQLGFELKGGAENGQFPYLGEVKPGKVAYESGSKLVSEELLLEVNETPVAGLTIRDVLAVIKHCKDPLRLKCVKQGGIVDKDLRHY

T13: SHROOM3, Q8TF72
T13 sequence (Q8TF72 20-120, limits assumed, looked up): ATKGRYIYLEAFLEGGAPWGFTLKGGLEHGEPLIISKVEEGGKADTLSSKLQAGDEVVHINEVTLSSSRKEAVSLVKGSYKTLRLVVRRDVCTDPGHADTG

T14: TJP3_1, O95049
T14 sequence (O95049 6-103, limits assumed, looked up): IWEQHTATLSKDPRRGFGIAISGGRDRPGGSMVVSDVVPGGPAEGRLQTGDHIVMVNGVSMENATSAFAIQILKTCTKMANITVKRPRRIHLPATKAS

B1: HPV82-E6, Q9IR59 (peptide)
chain: PPRQRSETQV
B2: SLC15A5, A6NIM6 (peptide)
chain: SSIDLWETAL
B3: HPV33-E6, P06427 (peptide)
chain: SRSRRRETAL
B4: FZD7, O75084 (peptide)
chain: SHSSKGETAV

Experiments:
Assay in all cases: holdup assay
Parameters in all cases: key: below the threshold = too weak to quantify, mostly under pKd 3.1 to 4
Conditions in all cases: plain residues with an end cap or a label only (N-terminal biotin on a linker: ttds)
GIPC1, O14908 = target: T1, GIPC1, O14908
PDZD2_3, O15018 = target: T2, PDZD2_3, O15018
RGS3, P49796-9 = target: RGS3, P49796-9
MPDZ_2, O75970 = target: T3, MPDZ_2, O75970
PARD6G, Q9BYG4 = target: T4, PARD6G, Q9BYG4
DVL3, Q92997 = target: T5, DVL3, Q92997
MPP1, Q00013 = target: T6, MPP1, Q00013
DVL2, O14641 = target: DVL2, O14641
SCRIB_4, Q14160 = target: SCRIB_4, Q14160
Inadl_10, Q8NI35 = target: Inadl_10, Q8NI35
PDZD7_1, Q9H5P4 = target: T7, PDZD7_1, Q9H5P4
CARD14, Q9BXL6 = target: CARD14, Q9BXL6
TJP3_2, O95049 = target: T8, TJP3_2, O95049
PARD3B_3, Q8TEW8 = target: PARD3B_3, Q8TEW8
PREX2_2, Q70Z35 = target: T9, PREX2_2, Q70Z35
SHROOM2, Q13796 = target: T10, SHROOM2, Q13796
PDZD8, Q8NEN9 = target: T11, PDZD8, Q8NEN9
MAGI2_1, Q86UL8 = target: T12, MAGI2_1, Q86UL8
PDZD9, Q8IXQ8 = target: PDZD9, Q8IXQ8
PDZRN4_2, Q6ZMN7 = target: PDZRN4_2, Q6ZMN7
SHROOM3, Q8TF72 = target: T13, SHROOM3, Q8TF72
TJP3_1, O95049 = target: T14, TJP3_1, O95049

Chain of Inadl_10, Q8NI35 (Q8NI35 1673-1763): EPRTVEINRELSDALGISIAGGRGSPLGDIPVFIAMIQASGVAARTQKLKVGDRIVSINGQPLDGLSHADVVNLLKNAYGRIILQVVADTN
Chain of PARD3B_3, Q8TEW8 (Q8TEW8 490-594): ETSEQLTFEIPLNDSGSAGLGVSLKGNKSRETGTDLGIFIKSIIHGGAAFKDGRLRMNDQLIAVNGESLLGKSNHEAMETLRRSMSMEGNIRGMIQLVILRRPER
Chain of RGS3, P49796-9 (P49796 other isoform, or with tags, fused parts or gaps): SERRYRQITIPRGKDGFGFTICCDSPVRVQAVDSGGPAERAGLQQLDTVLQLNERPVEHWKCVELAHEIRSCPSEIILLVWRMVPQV
Chain of PDZRN4_2, Q6ZMN7 (Q6ZMN7 389-498): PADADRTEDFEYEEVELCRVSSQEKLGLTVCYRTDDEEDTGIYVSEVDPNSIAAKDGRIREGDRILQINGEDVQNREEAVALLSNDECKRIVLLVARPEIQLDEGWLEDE
Chain of DVL2, O14641 (O14641 260-359): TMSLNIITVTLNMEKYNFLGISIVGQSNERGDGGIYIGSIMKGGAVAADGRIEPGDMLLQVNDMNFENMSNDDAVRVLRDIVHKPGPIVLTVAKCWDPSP
Chain of SCRIB_4, Q14160 (Q14160 1095-1204): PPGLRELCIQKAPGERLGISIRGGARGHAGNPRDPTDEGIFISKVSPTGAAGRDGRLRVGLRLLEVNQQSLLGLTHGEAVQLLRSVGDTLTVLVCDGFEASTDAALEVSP
Chain of CARD14, Q9BXL6 (Q9BXL6 558-663): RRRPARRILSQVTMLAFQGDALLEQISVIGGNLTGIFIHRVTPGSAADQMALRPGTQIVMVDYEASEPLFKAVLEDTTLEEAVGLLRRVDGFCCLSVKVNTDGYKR
Chain of PDZD9, Q8IXQ8 (Q8IXQ8 23-120): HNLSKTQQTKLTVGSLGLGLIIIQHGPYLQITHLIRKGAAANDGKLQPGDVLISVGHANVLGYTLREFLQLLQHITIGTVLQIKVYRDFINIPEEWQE

Row | Binder | pKd (GIPC1, O14908) | pKd (PDZD2_3, O15018) | pKd (RGS3, P49796-9) | pKd (MPDZ_2, O75970) | pKd (PARD6G, Q9BYG4) | pKd (DVL3, Q92997) | pKd (MPP1, Q00013) | pKd (DVL2, O14641) | pKd (SCRIB_4, Q14160) | pKd (Inadl_10, Q8NI35) | pKd (PDZD7_1, Q9H5P4) | pKd (CARD14, Q9BXL6) | pKd (TJP3_2, O95049) | pKd (PARD3B_3, Q8TEW8) | pKd (PREX2_2, Q70Z35) | pKd (SHROOM2, Q13796) | pKd (PDZD8, Q8NEN9) | pKd (MAGI2_1, Q86UL8) | pKd (PDZD9, Q8IXQ8) | pKd (PDZRN4_2, Q6ZMN7) | other results
1 | B1 | 4.27 | below the threshold | below the threshold | below the threshold | below the threshold | below the threshold | 5.75 | below the threshold | below the threshold | below the threshold | below the threshold | below the threshold | below the threshold | below the threshold | below the threshold | below the threshold | below the threshold | below the threshold | below the threshold | below the threshold | pKd (SHROOM3, Q8TF72): below the threshold; pKd (TJP3_1, O95049): below the threshold
2 | B2 | below the threshold | 5.1 | below the threshold | below the threshold | below the threshold | below the threshold | below the threshold | below the threshold | 4.97 | 4.17 | 4.95 | below the threshold | below the threshold | below the threshold | below the threshold | 5.76 | below the threshold | below the threshold | below the threshold | below the threshold | pKd (SHROOM3, Q8TF72): 4.81; pKd (TJP3_1, O95049): below the threshold
3 | B3 | below the threshold | below the threshold | below the threshold | below the threshold | below the threshold | below the threshold | 4.79 | below the threshold | 4.24 | below the threshold | below the threshold | below the threshold | below the threshold | below the threshold | below the threshold | below the threshold | below the threshold | below the threshold | below the threshold | below the threshold | pKd (SHROOM3, Q8TF72): below the threshold; pKd (TJP3_1, O95049): below the threshold
4 | B4 | 4.44 | below the threshold | below the threshold | below the threshold | below the threshold | below the threshold | 4.85 | below the threshold | below the threshold | below the threshold | below the threshold | below the threshold | below the threshold | below the threshold | 4.3 | below the threshold | below the threshold | 4.39 | below the threshold | below the threshold | pKd (SHROOM3, Q8TF72): below the threshold; pKd (TJP3_1, O95049): below the threshold
